The results in this text go back to paper PMC10288592.

This test has as its target PYCO1(452 to 592) (Phaeodactylum tricornutum). Put plainly: cryo-EM structure; single particle cryo-EM of the Rubisco–PYCO1(452 to 592) complex.

In the case of PYCO1(452 to 592) (domain or fragment), the stoichiometry N is 4.

The stoichiometry N is the number of molecules, sites or subunits per partner or assembly.
